Measurements as given in publication PMC8191757, “m6A RNA methylation of major satellite repeat transcripts facilitates chromatin association and RNA:DNA hybrid formation in mouse heterochromatin”.

Molecular target: T1, NLS-HBD(H1)-eGFP (mouse, UniProt O70338 27-76)
T1 chain: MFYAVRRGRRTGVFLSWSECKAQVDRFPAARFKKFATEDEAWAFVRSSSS
Test: EMSA; comparable to unmodified; EMSA: 20 nM hybrid, 125 nM-0.5 uM protein, 20 mM Tris-HCl pH 8.0, 150 mM NaCl, 5 mM MgCl2, 12.5% glycerol, 0.05% Triton X-100, 1 mM DTT, 1 h at 4 C
Conditions: protein: recombinant, tags: N-terminal NLS PKKKRKV, 6xHis-MBP cleaved by AcTEV, label: 5'-Cy5 on RNA, blunt

B1: MSR SR2 RNA:DNA hybrid, m6A (DNA:RNA)
RNA: UUUUCCACCUUUUUCAGUUUUCCUCGCCAUAUUUC
DNA: GAAATATGGCGAGGAAAACTGAAAAAGGTGGAAAA
modifications: m6A at RNA positions 7, 16, 29, 31
B1: binds.
